# T1: mouse MrgprC11, endogenous in wild-type DRG neurons (mouse)
# T1 chain: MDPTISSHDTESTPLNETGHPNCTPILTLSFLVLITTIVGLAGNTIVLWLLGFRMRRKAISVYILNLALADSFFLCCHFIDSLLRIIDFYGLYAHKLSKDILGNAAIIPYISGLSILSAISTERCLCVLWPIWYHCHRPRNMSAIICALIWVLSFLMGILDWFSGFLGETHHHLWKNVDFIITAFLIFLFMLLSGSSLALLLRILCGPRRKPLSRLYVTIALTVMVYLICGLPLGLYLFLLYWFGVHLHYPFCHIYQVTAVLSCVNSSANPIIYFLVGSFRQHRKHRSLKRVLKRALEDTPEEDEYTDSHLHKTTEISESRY
# Biological target: T1, mouse MrgprC11, endogenous in wild-type …
# Assay: cell-based or functional assay
binder,measurement,value
VGRPEWWMDYQKRYG [BAM8-22],"increased [Ca2+]i, calcium imaging of WT and Mrgpr-cluster deletion DRG neurons",3.6 % of WT DRG neurons

# — patent publication US20120073001A1, “METHODS AND COMPOSITIONS FOR […] OR […] […]” (THE JOHNS HOPKINS UNIVERSITY, published 2012)
